Experimental data from FireProtDB (doi:10.1016/0022-2836(92)90560-7).

Conditions: Bacillus amyloliquefaciens, 25 °C, Urea, Fluorescence, MES/Tris 150 mM/150 mM/, NaCl 1 M, whole UniProt chain shown

B1: Ribonuclease wild type, P00648 (protein)
chain: MMKMEGIALKKRLSWISVCLLVLVSAAGMLFSTAAKTETSSHKAHTEAQVINTFDGVADYLQTYHKLPDNYITKSEAQALGWVASKGNLADVAPGKSIGGDIFSNREGKLPGKSGRTWREADINYTSGFRNSDRILYSSDWLIYKTTDHYQTFTKIR
In the case of B1, the denaturant m value (pH 5.8) is reported as 1.95 kcal/mol/M, the “denaturant midpoint (higher = more stable)” value (pH 5.8) is reported as 5.62 M and the unfolding free energy (pH 5.8) is reported as 11 kcal/mol. For the same protein, the denaturant m value (pH 9) was 2.11 kcal/mol/M, the “denaturant midpoint (higher = more stable)” value (pH 9) was 4.8 M and the unfolding free energy (pH 9) was 9.41 kcal/mol.
